T1: mouse TIGIT overexpressed on CHO cells (mouse, UniProt P86176 29-249)
T1 construct: whole, on cells; also called CHO-muTIGIT cells
T1 sequence (looked up): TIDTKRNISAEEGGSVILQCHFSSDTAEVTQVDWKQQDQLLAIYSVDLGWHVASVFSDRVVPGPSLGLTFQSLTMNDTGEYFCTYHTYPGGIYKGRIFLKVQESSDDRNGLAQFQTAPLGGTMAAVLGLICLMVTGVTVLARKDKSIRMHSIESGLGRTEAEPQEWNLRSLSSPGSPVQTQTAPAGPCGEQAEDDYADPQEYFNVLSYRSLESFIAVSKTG

T2: human TIGIT expressed on cells (human, UniProt Q495A1 22-244)
T2 construct: whole, on cells; cDNA encoding human TIGIT in pCHO1.0 for CHO cells; also called CHO-huTIGIT cells
T2 sequence (looked up): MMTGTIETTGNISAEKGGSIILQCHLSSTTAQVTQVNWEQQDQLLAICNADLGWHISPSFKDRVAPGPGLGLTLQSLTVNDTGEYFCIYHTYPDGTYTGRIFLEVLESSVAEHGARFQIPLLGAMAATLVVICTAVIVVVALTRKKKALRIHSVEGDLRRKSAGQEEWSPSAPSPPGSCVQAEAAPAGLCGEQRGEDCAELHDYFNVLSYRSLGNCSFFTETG

T3: human TIGIT-his protein (human, UniProt Q495A1 22-141)
T3 construct: not shown: his tag
T3 sequence: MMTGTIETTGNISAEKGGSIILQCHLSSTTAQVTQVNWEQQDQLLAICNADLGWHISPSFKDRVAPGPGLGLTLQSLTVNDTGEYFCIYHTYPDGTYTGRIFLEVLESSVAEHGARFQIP

T4: mouse PVRIG overexpressed on CHO cells (mouse, UniProt A0A1B0GS01 1-234)
T4 construct: also called CHO-muPVRIG cells
T4 sequence: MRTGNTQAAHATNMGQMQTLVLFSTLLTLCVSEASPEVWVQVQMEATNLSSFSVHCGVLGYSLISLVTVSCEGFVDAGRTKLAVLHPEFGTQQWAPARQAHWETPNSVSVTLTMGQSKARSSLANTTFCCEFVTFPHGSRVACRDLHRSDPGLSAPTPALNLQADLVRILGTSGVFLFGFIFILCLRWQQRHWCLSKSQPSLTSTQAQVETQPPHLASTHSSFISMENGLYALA

T5: cynomolgus PVRIG overexpressed on CHO cells (cynomolgus, UniProt A0A2K5WVV8 1-322)
T5 construct: whole, on cells; also called CHO-cynoPVRIG cells
T5 sequence: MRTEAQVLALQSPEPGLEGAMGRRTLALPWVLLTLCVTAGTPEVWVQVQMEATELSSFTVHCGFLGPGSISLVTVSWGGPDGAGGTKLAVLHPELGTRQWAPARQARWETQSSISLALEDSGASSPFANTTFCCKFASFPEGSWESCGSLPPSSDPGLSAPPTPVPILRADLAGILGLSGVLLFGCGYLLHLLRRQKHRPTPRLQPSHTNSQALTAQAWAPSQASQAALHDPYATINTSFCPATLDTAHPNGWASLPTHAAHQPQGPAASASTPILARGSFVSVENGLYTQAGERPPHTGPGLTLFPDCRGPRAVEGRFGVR

T6: human PVRIG protein with mouse IgG2a Fc tag (human; mouse, UniProt Q6DKI7 41-171, limits assumed)
T6 construct: Whole entry named; not shown: mouse IgG2a Fc tag
T6 sequence (looked up): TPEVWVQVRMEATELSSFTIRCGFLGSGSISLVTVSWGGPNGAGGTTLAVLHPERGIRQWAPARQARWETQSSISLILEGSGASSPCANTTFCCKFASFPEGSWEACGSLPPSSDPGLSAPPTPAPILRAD

T7: human PVRIG expressed on cells (human, UniProt Q6DKI7 41-326)
T7 construct: whole, on cells; cDNA encoding human PVRIG in pCHO1.0 for CHO cells; also called CHO-huPVRIG cells
T7 sequence (looked up): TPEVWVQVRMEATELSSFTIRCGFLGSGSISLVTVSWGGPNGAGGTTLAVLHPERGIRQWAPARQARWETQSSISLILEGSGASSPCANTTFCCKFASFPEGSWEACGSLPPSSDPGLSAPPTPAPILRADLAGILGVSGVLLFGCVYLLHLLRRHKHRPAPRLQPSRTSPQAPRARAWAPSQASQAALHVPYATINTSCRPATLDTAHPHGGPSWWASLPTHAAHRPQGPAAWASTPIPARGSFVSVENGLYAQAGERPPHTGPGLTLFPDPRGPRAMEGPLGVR


What was measured:
[1] = target: T8, cynomolgus TIGIT overexpressed on CHO cells (cynomolgus, UniProt A0A7N9I9V4 89-312); test: flow cytometry, CHO-cynoTIGIT cells
T8 construct: whole, on cells; also called CHO-cynoTIGIT cells
Text: (§1) Specifically, CHO cells overexpressing human TIGIT (CHO-huTIGITcells), CHO cells overexpressing cynomolgus TIGIT (CHO-cynoTIGIT cells) and CHO cells overexpressing mouse TIGIT (CHO-muTIGIT cells) were generated by transfection of the pCHO1.0 vector (purchased from Invitrogen) with cDNA encoding human TIGIT, cynomolgus TIGIT and mouse TIGIT cloned into the multiple cloning site (MCS), respectively, followed by pressure screening. The overexpressing cells were expanded and adjusted to an appropriate cell density, and added to a 96-well flow cytometry plate. After centrifugation, the cells were added with a gradiently diluted sample to be tested, and incubated at 4° C. for 30 minutes. The cells were washed twice with PBS, and added with a fluorescent secondary antibody correspondingly diluted to an appropriate concentration, then incubated at 4° C. for 30 minutes, and washed twice with PBS. Cells were resuspended with PBS, and detected on a CytoFlex flow cytometer, and the corresponding MFI was calculated. Graphpad software was used for graphical analysis to obtain EC₅₀ values.

[2] = target: T1, mouse TIGIT overexpressed on CHO cells; test: flow cytometry, CHO-muTIGIT cells
Text: as §1

[3] = target: T2, human TIGIT expressed on cells; test: flow cytometry, competition with human CD155-mouse IgG2a Fc (2 ug/mL) on CHO-huTIGIT cells
Experimental: Specifically, the CHO-huTIGIT cells were expanded and adjusted to a cell density of 2×10⁶ cells/mL, added to a 96-well flow plate at 100 μL/well, and centrifuged for later use. The purified antibody was diluted 3-fold with PBS starting at 400 nM for a total of 12 concentration gradients. The diluted sample was added at 60 μL/well to the cells-carrying 96-well flow plate, and incubated at 4° C. for 30 minutes. […] APC-conjugated goat anti-mouse IgG antibody diluted 100-fold with PBS was added at 100 μL/well, incubated at 4° C. for 30 minutes, and washed twice with PBS. Cells were resuspended with PBS at 100 μL/well, and detected on a CytoFlex flow cytometer, and the corresponding MFI was calculated.

[4] = target: T9, cynomolgus monkey TIGIT-his protein (cynomolgus monkey); test: BLI (ForteBio), antibody on AHQ sensor, 100 nM antigen, monovalent, 1:1 model
T9 construct: also called Cynomolgus TIGIT-his; not shown: his tag
Experimental: (§2) The antibody-loaded sensor was incubated in 100 nM target antigen to the plateau phase, and then the sensor was transferred to an analysis buffer and incubated for at least 2 minutes for measuring dissociation rate. The kinetic analysis was performed using a 1:1 binding model.

human TIGIT-his protein = target: T3, human TIGIT-his protein; test: as above
Experimental: as §2

[5] = target: T2, human TIGIT expressed on cells; test: flow cytometry, CHO-huTIGIT cells
Text: as §1

[6] = target: T4, mouse PVRIG overexpressed on CHO cells; test: flow cytometry, CHO-muPVRIG cells
Experimental: (§3) The overexpressing cells were expanded and adjusted to an appropriate cell density, and added to a 96-well flow cytometry plate. After centrifugation, the cells were added with a gradiently diluted sample to be tested, and incubated at 4° C. for 30 minutes. The cells were washed twice with PBS, and added with a fluorescent secondary antibody correspondingly diluted to an appropriate concentration, then incubated at 4° C. for 30 minutes, and washed twice with PBS. Cells were resuspended with PBS, and detected on a CytoFlex flow cytometer, and the corresponding MFI was calculated. Graphpad software was used for graphical analysis to obtain EC₅₀ values.

[7] = target: T5, cynomolgus PVRIG overexpressed on CHO …; test: flow cytometry, CHO-cynoPVRIG cells
Experimental: as §3

[8] = target: T6, human PVRIG protein with mouse IgG2a Fc …; test: flow cytometry, competition: human PVRIG-mouse IgG2a Fc (1 ug/mL) binding to CHO-huCD112 cells
Experimental: Specifically, CHO cells overexpressing human CD112 (CHO-huCD112 cells) were generated by transfection of the pCHO1.0 vector (purchased from Invitrogen) with cDNA encoding human CD112 cloned into the multiple cloning site (MCS), respectively, followed by pressure screening. The CHO-huCD112 cells were expanded and adjusted to a cell density of 2×10⁶ cells/mL, added to a 96-well flow plate at 100 μL/well, and centrifuged for later use. The purified monoclonal antibody was gradient diluted with PBS and the diluted sample was added to a blank 96-well flow plate at 60 μL/well. […] The above incubated samples were added at 100 μL/well to the 96-well flow plate containing CHO-huCD112 cells, incubated at 4° C. for 30 min and washed twice with PBS. APC-conjugated goat anti-mouse IgG antibody diluted 100-fold with PBS was added at 100 μL/well, incubated at 4° C. for 30 minutes and washed twice with PBS. Cells were resuspended with PBS at 100 μL/well, and detected on a CytoFlex flow cytometer, and the corresponding MFI was calculated.

[9] = target: T7, human PVRIG expressed on cells; test: flow cytometry, CHO-huPVRIG cells
Experimental: as §3

[10] = target: Biotin-labeled mouse PVRIG huFc protein (mouse); test: competition ELISA: biotin mouse PVRIG-huFc binding to coated mouse CD112-his
Experimental: Specifically, mouse CD112-his protein diluted with 1× coating buffer to a final concentration of 1 μg/mL was added to the ELISA plate at 100 μL/well, covered with the film, and coated overnight at 4° C. The coating solution in the ELISA plate was discarded, and the ELISA plate was washed three times with 1×PBST and was blocked with 5% BSA/PBS at 200 μL/well for 2 hours at room temperature. During the blocking period, the samples to be tested were gradient diluted with 1% BSA/PBS to a final volume of 60 μL/well. […] The blocking solution in the ELISA plate was discarded, and the above sample mixture was added at 100 μL/well and incubated for 2 hours at room temperature. The above co-incubated samples were discarded, the ELISA plate was washed three times with 1×PBST, and SA-HRP diluted with 1% BSA/PBS was added at 100 μL/well and incubated for 1 hour at room temperature. The SA-HRP dilution was discarded, the ELISA plate was washed three times with 1×PBST, ELISA Chromogen Solution was added at 100 μL/well and incubated for 1-3 minutes at room temperature, ELISA stopping solution was added at 50 μL/well and the absorbance values were read at 450 nm.

T9 sequence (chain, as listed by the source): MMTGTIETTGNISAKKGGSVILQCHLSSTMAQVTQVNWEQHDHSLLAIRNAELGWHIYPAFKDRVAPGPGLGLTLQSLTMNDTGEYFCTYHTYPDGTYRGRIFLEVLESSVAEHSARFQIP
T8 sequence (A0A7N9I9V4 entry or part of it): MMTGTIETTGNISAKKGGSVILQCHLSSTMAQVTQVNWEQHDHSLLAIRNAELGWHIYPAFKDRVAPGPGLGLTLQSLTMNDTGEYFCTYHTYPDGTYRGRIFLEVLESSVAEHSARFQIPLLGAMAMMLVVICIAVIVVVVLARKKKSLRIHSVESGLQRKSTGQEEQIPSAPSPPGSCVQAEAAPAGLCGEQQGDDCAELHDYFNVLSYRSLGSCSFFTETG

EC50 [1] [nM] | binding result [2] | IC50 [3] [nM] | Kd [4] [nM] | Kd (human TIGIT-his protein) [nM] | EC50 [5] [nM] | EC50 [6] [nM] | EC50 [7] [nM] | IC50 [8] [nM] | EC50 [9] [nM] | IC50 [10] [nM] | Binder
1.5 | no binding | 0.296 | 34 | 1.9 | 0.964 |  |  |  |  |  | anti-TIGIT monoclonal antibody ADI-55812 (antibody, V domains shown) VH: QVQLVQSGAEVKKPGASVKVSCKASGYAFTGYYMHWVRQAPGQGLEWMGSIIPFSGEANYAQKFQGRVTMTRDTSISTAYMELSRLRSDDTAVYYCARGPGSLDRLWYYYYGMDVWGQGTTVTVSS VL: not shown
 |  |  |  |  |  | 6.47 | 1.96 | 1.23 | 2.51 | 1.57 | anti-PVRIG monoclonal antibody ADI-56127-G1 (antibody, human IgG1, V domains shown, Wild-type human IgG1 heavy chain constant region, human kappa light chain constant region; HEK293) VH: QVQLVQSGAEVKKPGSSVKVSCKASGGTESVDAISWVRQAPGQGLEWMGDIIPFFDTDYAQKFQGRVTITADESTSTAYMELSSLRSEDTAVYYCAREGGTSWTHFFDLWGRGTLVTVSS VL: not shown
 |  |  |  |  |  | 5.38 | 1.98 | 1.36 | 2.44 | 1.78 | anti-PVRIG monoclonal antibody ADI-56127-G1LALA (antibody, human IgG1, V domains shown, Human IgG1 heavy chain constant region modified by L234A, L235A; human kappa light chain constant region; HEK293) VH: QVQLVQSGAEVKKPGSSVKVSCKASGGTESVDAISWVRQAPGQGLEWMGDIIPFFDTDYAQKFQGRVTITADESTSTAYMELSSLRSEDTAVYYCAREGGTSWTHFFDLWGRGTLVTVSS VL: not shown
